Patent US20150322129A1 (Sanofi, published 2015)
Numbered stars: 1 amine (or outer) side, 2 acyl side, 3 side chain; on linkers, the order of the positions; unused ones are H or OH. Square brackets hold non-standard residues; d marks the D form. Side chains are listed from the residue outwards. Ends that are not written are not given here. * marks the point of attachment. γGlu = O=C(O)[C@H](CCC(=O)[*:2])N[*:1]; Stearoyl = CCCCCCCCCCCCCCCCCC(=O)*; Palmitoyl = CCCCCCCCCCCCCCCC(=O)*; AEEA = NCCOCCOCC(=O)O; Aib = CC(C)(N)C(=O)O

B1: SEQ ID NO: 29 (peptide)
peptide: H-H[Aib]HGTFTSDLSKQK([AEEA-AEEA-AEEA-Stearoyl])EEEAVRLFIEWLKAGGPSSGAPPPS-NH2
B2: SEQ ID NO: 19 (peptide)
peptide: H[dS]QGTFTSDLSKQK([γGlu-Stearoyl])DEEAVRLFIEWLKAGGPSSGAPPPS-NH2
modifications: N-terminus assumed
SMILES: CCCCCCCCCCCCCCCCCC(=O)N[C@@H](CCC(=O)NCCCC[C@H](NC(=O)[C@H](CCC(N)=O)NC(=O)[C@H](CCCCN)NC(=O)[C@H](CO)NC(=O)[C@H](CC(C)C)NC(=O)[C@H](CC(=O)O)NC(=O)[C@H](CO)NC(=O)[C@@H](NC(=O)[C@H](Cc1ccccc1)NC(=O)[C@@H](NC(=O)CNC(=O)[C@H](CCC(N)=O)NC(=O)[C@@H](CO)NC(=O)[C@@H](N)Cc1c[nH]cn1)[C@@H](C)O)[C@@H](C)O)C(=O)N[C@@H](CC(=O)O)C(=O)N[C@@H](CCC(=O)O)C(=O)N[C@@H](CCC(=O)O)C(=O)N[C@@H](C)C(=O)N[C@H](C(=O)N[C@@H](CCCNC(=N)N)C(=O)N[C@@H](CC(C)C)C(=O)N[C@@H](Cc1ccccc1)C(=O)N[C@H](C(=O)N[C@@H](CCC(=O)O)C(=O)N[C@@H](Cc1c[nH]c2ccccc12)C(=O)N[C@@H](CC(C)C)C(=O)N[C@@H](CCCCN)C(=O)N[C@@H](C)C(=O)NCC(=O)NCC(=O)N1CCC[C@H]1C(=O)N[C@@H](CO)C(=O)N[C@@H](CO)C(=O)NCC(=O)N[C@@H](C)C(=O)N1CCC[C@H]1C(=O)N1CCC[C@H]1C(=O)N1CCC[C@H]1C(=O)N[C@@H](CO)C(N)=O)[C@@H](C)CC)C(C)C)C(=O)O
B3: SEQ ID NO: 21 (peptide)
peptide: H-H[dS]HGTFTSDLSKQK([γGlu-γGlu-Palmitoyl])DEEAVRLFIEWLKAGGPSSGAPPPS-NH2
SMILES: CCCCCCCCCCCCCCCC(=O)N[C@@H](CCC(=O)N[C@@H](CCC(=O)NCCCC[C@H](NC(=O)[C@H](CCC(N)=O)NC(=O)[C@H](CCCCN)NC(=O)[C@H](CO)NC(=O)[C@H](CC(C)C)NC(=O)[C@H](CC(=O)O)NC(=O)[C@H](CO)NC(=O)[C@@H](NC(=O)[C@H](Cc1ccccc1)NC(=O)[C@@H](NC(=O)CNC(=O)[C@H](Cc1c[nH]cn1)NC(=O)[C@@H](CO)NC(=O)[C@@H](N)Cc1c[nH]cn1)[C@@H](C)O)[C@@H](C)O)C(=O)N[C@@H](CC(=O)O)C(=O)N[C@@H](CCC(=O)O)C(=O)N[C@@H](CCC(=O)O)C(=O)N[C@@H](C)C(=O)N[C@H](C(=O)N[C@@H](CCCNC(=N)N)C(=O)N[C@@H](CC(C)C)C(=O)N[C@@H](Cc1ccccc1)C(=O)N[C@H](C(=O)N[C@@H](CCC(=O)O)C(=O)N[C@@H](Cc1c[nH]c2ccccc12)C(=O)N[C@@H](CC(C)C)C(=O)N[C@@H](CCCCN)C(=O)N[C@@H](C)C(=O)NCC(=O)NCC(=O)N1CCC[C@H]1C(=O)N[C@@H](CO)C(=O)N[C@@H](CO)C(=O)NCC(=O)N[C@@H](C)C(=O)N1CCC[C@H]1C(=O)N1CCC[C@H]1C(=O)N1CCC[C@H]1C(=O)N[C@@H](CO)C(N)=O)[C@@H](C)CC)C(C)C)C(=O)O)C(=O)O
B4: SEQ ID NO: 28 (peptide)
peptide: H-H[Aib]HGTFTSDLSKQK([AEEA-AEEA-γGlu-Stearoyl])EEEAVRLFIEWLKAGGPSSGAPPPS-NH2
B5: SEQ ID NO: 6 (peptide)
peptide: H[Aib]QGTFTSDLSKQK([γGlu-Stearoyl])EEEAVRLFIEWLKAGGPSSGAPPPS-NH2
B6: SEQ ID NO: 23 (peptide)
peptide: H-H[dS]QGTFTSDLSKQK([γGlu-γGlu-Palmitoyl])DEEAVRLFIEWLKAGGPSSGAPPPS-NH2
SMILES: CCCCCCCCCCCCCCCC(=O)N[C@@H](CCC(=O)N[C@@H](CCC(=O)NCCCC[C@H](NC(=O)[C@H](CCC(N)=O)NC(=O)[C@H](CCCCN)NC(=O)[C@H](CO)NC(=O)[C@H](CC(C)C)NC(=O)[C@H](CC(=O)O)NC(=O)[C@H](CO)NC(=O)[C@@H](NC(=O)[C@H](Cc1ccccc1)NC(=O)[C@@H](NC(=O)CNC(=O)[C@H](CCC(N)=O)NC(=O)[C@@H](CO)NC(=O)[C@@H](N)Cc1c[nH]cn1)[C@@H](C)O)[C@@H](C)O)C(=O)N[C@@H](CC(=O)O)C(=O)N[C@@H](CCC(=O)O)C(=O)N[C@@H](CCC(=O)O)C(=O)N[C@@H](C)C(=O)N[C@H](C(=O)N[C@@H](CCCNC(=N)N)C(=O)N[C@@H](CC(C)C)C(=O)N[C@@H](Cc1ccccc1)C(=O)N[C@H](C(=O)N[C@@H](CCC(=O)O)C(=O)N[C@@H](Cc1c[nH]c2ccccc12)C(=O)N[C@@H](CC(C)C)C(=O)N[C@@H](CCCCN)C(=O)N[C@@H](C)C(=O)NCC(=O)NCC(=O)N1CCC[C@H]1C(=O)N[C@@H](CO)C(=O)N[C@@H](CO)C(=O)NCC(=O)N[C@@H](C)C(=O)N1CCC[C@H]1C(=O)N1CCC[C@H]1C(=O)N1CCC[C@H]1C(=O)N[C@@H](CO)C(N)=O)[C@@H](C)CC)C(C)C)C(=O)O)C(=O)O
B7: SEQ ID NO: 10 (peptide)
peptide: HSHGTFTSDLSKQK([γGlu-Stearoyl])EEEAVRLFIEWLKAGGPSSGAPPPS-NH2
B8: SEQ ID NO: 15 (peptide)
peptide: H[dS]HGTFTSDLSKQK([γGlu-Stearoyl])DEEAVRLFIEWLKAGGPSSGAPPPS-NH2
modifications: N-terminus assumed
SMILES: CCCCCCCCCCCCCCCCCC(=O)N[C@@H](CCC(=O)NCCCC[C@H](NC(=O)[C@H](CCC(N)=O)NC(=O)[C@H](CCCCN)NC(=O)[C@H](CO)NC(=O)[C@H](CC(C)C)NC(=O)[C@H](CC(=O)O)NC(=O)[C@H](CO)NC(=O)[C@@H](NC(=O)[C@H](Cc1ccccc1)NC(=O)[C@@H](NC(=O)CNC(=O)[C@H](Cc1c[nH]cn1)NC(=O)[C@@H](CO)NC(=O)[C@@H](N)Cc1c[nH]cn1)[C@@H](C)O)[C@@H](C)O)C(=O)N[C@@H](CC(=O)O)C(=O)N[C@@H](CCC(=O)O)C(=O)N[C@@H](CCC(=O)O)C(=O)N[C@@H](C)C(=O)N[C@H](C(=O)N[C@@H](CCCNC(=N)N)C(=O)N[C@@H](CC(C)C)C(=O)N[C@@H](Cc1ccccc1)C(=O)N[C@H](C(=O)N[C@@H](CCC(=O)O)C(=O)N[C@@H](Cc1c[nH]c2ccccc12)C(=O)N[C@@H](CC(C)C)C(=O)N[C@@H](CCCCN)C(=O)N[C@@H](C)C(=O)NCC(=O)NCC(=O)N1CCC[C@H]1C(=O)N[C@@H](CO)C(=O)N[C@@H](CO)C(=O)NCC(=O)N[C@@H](C)C(=O)N1CCC[C@H]1C(=O)N1CCC[C@H]1C(=O)N1CCC[C@H]1C(=O)N[C@@H](CO)C(N)=O)[C@@H](C)CC)C(C)C)C(=O)O
B9: SEQ ID NO: 8 (peptide)
peptide: HXHGTFTSDLSKQKDEEAVRLFIEWLKAGGPSSGAPPPS
modifications: Aib at position 2; Lys 14 side-chain NH2 acylated with γE-x70 = (S)-4-Carboxy-4-octadecanoylamino-butyryl-; C-terminal amide (NH2)
B10: SEQ ID NO: 27 (peptide)
peptide: H-H[Aib]HGTFTSDLSKQK([AEEA-AEEA-γGlu-Palmitoyl])EEEAVRLFIEWLKAGGPSSGAPPPS-NH2
B11: SEQ ID NO: 24 (peptide)
peptide: H-H[Aib]QGTFTSDLSKQK([γGlu-γGlu-Palmitoyl])EEEAVRLFIEWLKAGGPSSGAPPPS-NH2
SMILES: CCCCCCCCCCCCCCCC(=O)N[C@@H](CCC(=O)N[C@@H](CCC(=O)NCCCC[C@H](NC(=O)[C@H](CCC(N)=O)NC(=O)[C@H](CCCCN)NC(=O)[C@H](CO)NC(=O)[C@H](CC(C)C)NC(=O)[C@H](CC(=O)O)NC(=O)[C@H](CO)NC(=O)[C@@H](NC(=O)[C@H](Cc1ccccc1)NC(=O)[C@@H](NC(=O)CNC(=O)[C@H](CCC(N)=O)NC(=O)C(C)(C)NC(=O)[C@@H](N)Cc1c[nH]cn1)[C@@H](C)O)[C@@H](C)O)C(=O)N[C@@H](CCC(=O)O)C(=O)N[C@@H](CCC(=O)O)C(=O)N[C@@H](CCC(=O)O)C(=O)N[C@@H](C)C(=O)N[C@H](C(=O)N[C@@H](CCCNC(=N)N)C(=O)N[C@@H](CC(C)C)C(=O)N[C@@H](Cc1ccccc1)C(=O)N[C@H](C(=O)N[C@@H](CCC(=O)O)C(=O)N[C@@H](Cc1c[nH]c2ccccc12)C(=O)N[C@@H](CC(C)C)C(=O)N[C@@H](CCCCN)C(=O)N[C@@H](C)C(=O)NCC(=O)NCC(=O)N1CCC[C@H]1C(=O)N[C@@H](CO)C(=O)N[C@@H](CO)C(=O)NCC(=O)N[C@@H](C)C(=O)N1CCC[C@H]1C(=O)N1CCC[C@H]1C(=O)N1CCC[C@H]1C(=O)N[C@@H](CO)C(N)=O)[C@@H](C)CC)C(C)C)C(=O)O)C(=O)O

What follows are binders tested against human GLP-1 receptor (human, UniProt P43220 24-463) (assay: cell-based or functional assay).

| Binder | EC50 hGLP-1R (cAMP formation) [nM] |
| --- | --- |
| B1 | 0.0047 |
| B2 | 0.0035 |
| B3 | 0.0008 |
| B4 | 0.0038 |
| B5 | 0.0094 |
| B6 | 0.0012 |
| B7 | 0.0034 |
| B8 | 0.0044 |

What follows are binders tested against T1, human GIP receptor (human, UniProt P48546 22-466) (assay: cell-based or functional assay).
T1 sequence (looked up): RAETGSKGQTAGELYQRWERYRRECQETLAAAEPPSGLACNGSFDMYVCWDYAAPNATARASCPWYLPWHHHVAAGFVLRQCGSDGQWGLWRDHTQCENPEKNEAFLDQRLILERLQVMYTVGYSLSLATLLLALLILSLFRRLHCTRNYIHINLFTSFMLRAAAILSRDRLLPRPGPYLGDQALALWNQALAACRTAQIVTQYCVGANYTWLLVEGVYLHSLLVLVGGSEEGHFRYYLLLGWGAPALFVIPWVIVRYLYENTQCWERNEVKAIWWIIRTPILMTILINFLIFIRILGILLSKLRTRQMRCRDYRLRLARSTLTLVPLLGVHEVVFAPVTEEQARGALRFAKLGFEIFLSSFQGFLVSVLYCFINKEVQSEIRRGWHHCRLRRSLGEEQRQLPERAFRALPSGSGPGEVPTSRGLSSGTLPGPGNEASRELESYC

| Binder | EC50 hGIP-R (cAMP formation) [nM] |
| --- | --- |
| B9 | 0.0258 |
| B1 | 0.0476 |
| B10 | 0.0095 |
| B2 | 0.4 |
| B3 | 0.0994 |
| B4 | 0.017 |
| B11 | 0.0199 |
| B5 | 0.0607 |
| B6 | 0.35 |
| B7 | 0.0711 |
| B8 | 0.555 |

The binders below were run against human glucagon receptor (human, UniProt P47871 26-477) (assay: cell-based or functional assay).
Chain of human glucagon receptor (P47871 26-477): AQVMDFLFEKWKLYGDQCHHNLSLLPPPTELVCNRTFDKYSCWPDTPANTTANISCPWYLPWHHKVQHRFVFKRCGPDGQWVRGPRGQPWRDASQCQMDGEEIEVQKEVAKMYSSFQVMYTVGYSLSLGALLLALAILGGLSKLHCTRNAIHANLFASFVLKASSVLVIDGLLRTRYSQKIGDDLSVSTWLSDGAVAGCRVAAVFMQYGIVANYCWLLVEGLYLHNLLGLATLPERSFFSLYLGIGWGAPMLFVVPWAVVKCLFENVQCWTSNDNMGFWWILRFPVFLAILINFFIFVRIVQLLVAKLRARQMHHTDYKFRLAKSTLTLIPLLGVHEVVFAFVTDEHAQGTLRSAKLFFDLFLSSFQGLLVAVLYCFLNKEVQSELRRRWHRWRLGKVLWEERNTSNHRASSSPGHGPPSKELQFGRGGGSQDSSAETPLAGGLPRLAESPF

| Binder | EC50 hGlucagon-R (cAMP formation) [nM] |
| --- | --- |
| B9 | 0.0245 |
| B1 | 0.0179 |
| B10 | 0.0234 |
| B2 | 0.129 |
| B3 | 0.0859 |
| B4 | 0.0171 |
| B11 | 0.261 |
| B5 | 0.309 |
| B6 | 0.124 |
| B7 | 0.0069 |
| B8 | 0.064 |
